# According to paper PMC4033772 (The Journal of Cell Biology, 2014):
# B1: FLAG-tagged Stu1 (natural protein, S. cerevisiae, UniProt P38198 1-1513, looked up)
# chain: MSSFNNETNNNSNTNTHPDDSFPLYTVFKDESVPIEEKMALLTRFKGHVKKELVNESSIQAYFAALLFISGHYAYRSYPRLIFLSHSSLCYLIKRVAMQSPVQFNDTLVEQLLNHLIFELPNEKKFWLASIKAIEAIYLVNPSKIQAILANFLRRPSENQNGDYLNRIKSTLLTIDELIQINEKNNSNHLQLLRFFMLSFTNLLNNNLNEHANDDNNNVIIELIFDIMYKYLKMDDENSQDLIDGFINDLEVEKFKQKFISLAKSQDQHGSQEDKSTLFDEEYEFQLLLAEAKLPQLSNNLSSKDPAMKKNYESLNQLQQDLENLLAPFQSVKETEQNWKLRQSNIIELDNIISGNIPKDNPEEFVTVIKEVQLIELISRATSSLRTTLSLTALLFLKRLIHILNDQLPLSILDQIFVIFKNLLSSTKKISSQTAFHCLITLIIDINHFHNKLFQLSFLLINEKTVTPRFCSAILLRSFLIKFNDSNLSLNNSNTTSPTSKLENNIIYIEEWLKKGISDSQTTVREAMRLTFWYFYKCYPTNAKRLLSSSFSPQLKKATELAIPAHLNINYQVSRVSSTASASSATSRLYSHSSNNSSRKTSLLEQKRNYPSYAQPTQSSSTSLLNAPAVTAGGSVIASKLSNKLKTNLRSTSEYSSKENEKRARHHDSMNSVSNSNTKDNNNVTKRKVSAPPSSTAATKVSENYTNFDDFPSNQIDLTDELSNSYSNPLIKKYMDKNDVSMSSSPISLKGSNKLGEYETLYKKFNDASFPAQIKDALQYLQKELLLTSQQSSSAPKFEFPMIMKKLRQIMIKSPNDFKPFLSIEKFTNGVPLNYLIELYSINSFDYAEILKNRMNPEKPYELTNLIITIADLFNFLNANNCPNDFKLYYMKYKTTFFNYNFKLLLEIFRNLNIKHDNTLRSGTNDLMPKISMILFQIYGKEFDYTCYFNLIFEIYKFDNNRFNKLLADFDIVSTKMKICHELEKKDANFKVEDIISRESSVSFTPIDNKKSEGDEESDDAVDENDVKKCMEMTMINPFKNLETDKTLELKNNVGKRTSSTDSVVIHDDNDKDKKLSEMTKIVSVYQLDQPNPAKEEDDIDMENSQKSDLNLSEIFQNSGENTERKLKDDNEPTVKFSTDPPKIINEPEKLIGNGNENEKPDLETMSPIKINGDENMGQKQRITVKRERDVALTEQDINSKKMKLVNNKKSEKMHLLIMDNFPRDSLTVYEISHLLMVDSNGNTLMDFDVYFNHMSKAINRIKSGSFTMKHINYLIEPLITCFQNQKMTDWLTNENGFDELLDVAIMLLKSTDDTPSIPSKISSKSIILVHCLLVWKKFLNTLSENADDDGVSVRMCFEEVWEQILLMLNKFSDYGNEIYKLAQEFRDSLMLSHFFKKHSATRILSMLVTEIQPDTAGVKETFLIETLWKMLQSPTICQQFKKSNISEIIQTMSYFIMGTDNTSWNFTSAVVLARCLRVLQTTPDYTEQETERLFDCLPKNVFKMIMFIASNE
# Molecular target: the molecule itself
# Assay: SEC + other: sucrose gradient sedimentation
protein,measurement,value
B1,stoichiometry N,2
